Molecular target: histone H2A–H2B (from chicken blood histone core octamers) (chicken) (UniProt P02263)
Test: ITC; 25 °C, 20 mM HEPES pH 7.5, 200 mM NaCl, 1 mM DTT; histones in the cell at 20–30 μM, SSRP1 variants in the syringe at 10 times that concentration

Chain of full-length DdSSRP1 (Q54G78 whole entry): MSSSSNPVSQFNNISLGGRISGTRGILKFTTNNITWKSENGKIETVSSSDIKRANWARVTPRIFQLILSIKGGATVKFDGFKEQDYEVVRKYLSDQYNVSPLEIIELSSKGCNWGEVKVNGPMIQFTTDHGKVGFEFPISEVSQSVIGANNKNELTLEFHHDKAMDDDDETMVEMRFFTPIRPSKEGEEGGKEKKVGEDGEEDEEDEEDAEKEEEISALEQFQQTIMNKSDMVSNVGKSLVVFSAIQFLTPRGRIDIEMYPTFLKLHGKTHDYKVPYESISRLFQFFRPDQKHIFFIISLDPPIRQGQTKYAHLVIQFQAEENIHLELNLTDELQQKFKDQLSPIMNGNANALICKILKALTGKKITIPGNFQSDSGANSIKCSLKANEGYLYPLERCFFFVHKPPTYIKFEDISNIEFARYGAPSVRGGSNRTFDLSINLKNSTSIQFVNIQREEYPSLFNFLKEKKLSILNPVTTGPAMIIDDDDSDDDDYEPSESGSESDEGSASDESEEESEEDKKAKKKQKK
Chain of DdSSRP1 containing only the ID1 region (residues 479–527) (Q54G78 479-527): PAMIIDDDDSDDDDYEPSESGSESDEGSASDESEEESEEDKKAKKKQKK

Kd [nM] | Substance
310 | full-length DdSSRP1 (from UniProt Q54G78 1-527) (natural protein)
190 | DdSSRP1 containing only the ID1 region (residues 479–527) (from UniProt Q54G78 479-527) (domain or fragment)
